Assays:
Assay in all cases: cell-based or functional assay
[1] = target: HIV-1 subtype C envelope COT6.15 (HIV-1 subtype C)
[2] = target: HIV-1 subtype C envelope DU151.2 (HIV-1 subtype C)
[3] = target: HIV-1 subtype B envelope JR-FL (HIV-1 subtype B)
[4] = target: HIV-1 subtype C envelope Du179.14 (HIV-1 subtype C)
[5] = target: HIV-1 subtype B envelope CAAN5342.A2 (HIV-1 subtype B)
[6] = target: HIV-1 subtype A envelope Q23.17 (HIV-1 subtype A)
[7] = target: GRFT-resistant envelope Du179 GRFT c17 (R)
[8] = target: HIV-1 subtype B envelope PVO.4 (HIV-1 subtype B)
[9] = target: Env of HIV-1RF virus (HIV-1 RF)
[10] = target: HIV-1 subtype A envelope Q168.a2 (HIV-1 subtype A)
[11] = target: GRFT-resistant envelope Du156R18 (R)
[12] = target: HIV-1 subtype C envelope CAP206.8 (HIV-1 subtype C)
[13] = target: HIV-1 subtype B envelope QH0692.42 (HIV-1 subtype B)
[14] = target: HIV-1 subtype C envelope Du156.12 (HIV-1 subtype C)

griffithsin (GRFT), native domain-swapped dimer, sequence (P84801 whole entry X31A, the tested form may be a part): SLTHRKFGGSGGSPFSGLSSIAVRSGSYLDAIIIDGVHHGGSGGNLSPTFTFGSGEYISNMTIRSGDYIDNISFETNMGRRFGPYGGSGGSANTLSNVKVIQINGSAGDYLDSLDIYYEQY

griffithsin (GRFT), native domain-swapped dimer (from UniProt P84801 1-121)
IC50 (pseudovirus neutralization, JC53bl-13 cells) [1]: 0.734 nM | IC50 (pseudovirus neutralization, JC53bl-13 cells) [2]: 1.49 nM | IC50 (pseudovirus neutralization, JC53bl-13 cells) [3]: 0.922 nM | IC50 (pseudovirus neutralization, JC53bl-13 cells) [4]: 0.606 nM | IC50 (pseudovirus neutralization, JC53bl-13 cells) [5]: 7.34 nM | IC50 (pseudovirus neutralization, JC53bl-13 cells) [6]: 1.19 nM | fold reduction in activity between the WT (Du179.14) and R viruses [7]: > 82 fold | IC50 (pseudovirus neutralization, JC53bl-13 cells) [8]: 0.037 nM | Anti-HIV EC50 (XTT cytopathicity assay, HIV-1RF, CEM-SS cells) [9]: 0.0138 nM | IC50 (pseudovirus neutralization, JC53bl-13 cells) [10]: 3.8 nM | IC50 (pseudovirus neutralization, JC53bl-13 cells) [11]: 9.14 nM | fold reduction in activity between the WT (Du156.12) and R viruses [11]: 282 fold | IC50 (pseudovirus neutralization, JC53bl-13 cells) [12]: 2.14 nM | IC50 (pseudovirus neutralization, JC53bl-13 cells) [13]: 0.0473 nM | IC50 (pseudovirus neutralization, JC53bl-13 cells) [14]: 0.0324 nM
